Experimental data as given in patent publication US7662633B2, “Method of screening for inhibitors of osteopontin” (GlaxoSmithKline LLC, priority 2000, dated 2010).
Ends that are not written are not given here.

What was measured:
Type in all cases: cell-based
[1] = molecular target: T1, α4β7 (Homo sapiens, UniProt P13612+P26010); test: α4β7 adhesion assay: RPMI8866 cell adhesion to zz-MAdCAM; conditions: for Inhibition of RPMI8866 cell adhesion to zz-MAdCAM by synthetic peptide: varying peptide concentrations, 20 min 37° C.; for Relative potency compared to parent peptide SVVYGLR against α4β7 (RPMI8866 adhesion to zz-MAdCAM): SVVYGLR peptide with the residue mutated to alanine
T1 construct: RPMI8866 cells which express α4β7, and small amounts of α4β1 and α5β1 were used; endogenous in cells; host or cells: RPMI8866 cells
T1 sequence (P13612 34-1032): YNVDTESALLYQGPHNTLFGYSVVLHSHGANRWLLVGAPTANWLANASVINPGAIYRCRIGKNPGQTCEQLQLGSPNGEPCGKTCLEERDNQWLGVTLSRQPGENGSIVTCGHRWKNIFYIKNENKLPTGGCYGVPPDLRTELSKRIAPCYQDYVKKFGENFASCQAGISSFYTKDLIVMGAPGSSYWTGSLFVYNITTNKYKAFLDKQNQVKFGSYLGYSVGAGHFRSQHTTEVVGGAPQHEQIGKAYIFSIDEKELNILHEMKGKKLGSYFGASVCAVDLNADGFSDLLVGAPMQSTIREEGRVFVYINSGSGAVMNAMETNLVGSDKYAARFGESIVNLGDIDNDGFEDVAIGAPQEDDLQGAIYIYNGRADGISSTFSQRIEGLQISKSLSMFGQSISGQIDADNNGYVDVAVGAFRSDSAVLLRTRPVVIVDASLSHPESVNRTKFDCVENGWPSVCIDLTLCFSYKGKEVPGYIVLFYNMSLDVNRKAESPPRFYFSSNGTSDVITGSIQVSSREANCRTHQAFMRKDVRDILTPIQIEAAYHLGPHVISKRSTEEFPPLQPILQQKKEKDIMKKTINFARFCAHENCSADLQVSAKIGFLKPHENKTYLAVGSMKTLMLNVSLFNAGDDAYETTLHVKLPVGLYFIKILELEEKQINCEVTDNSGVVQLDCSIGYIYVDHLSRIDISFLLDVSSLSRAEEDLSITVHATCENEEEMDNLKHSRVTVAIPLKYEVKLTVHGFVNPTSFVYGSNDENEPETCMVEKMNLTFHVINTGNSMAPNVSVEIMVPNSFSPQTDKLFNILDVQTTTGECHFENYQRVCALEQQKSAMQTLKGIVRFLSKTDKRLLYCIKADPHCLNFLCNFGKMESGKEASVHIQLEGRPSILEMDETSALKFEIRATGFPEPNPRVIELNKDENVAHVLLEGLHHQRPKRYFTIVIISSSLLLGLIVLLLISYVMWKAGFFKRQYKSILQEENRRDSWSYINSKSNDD
T1 sequence (P26010 20-798): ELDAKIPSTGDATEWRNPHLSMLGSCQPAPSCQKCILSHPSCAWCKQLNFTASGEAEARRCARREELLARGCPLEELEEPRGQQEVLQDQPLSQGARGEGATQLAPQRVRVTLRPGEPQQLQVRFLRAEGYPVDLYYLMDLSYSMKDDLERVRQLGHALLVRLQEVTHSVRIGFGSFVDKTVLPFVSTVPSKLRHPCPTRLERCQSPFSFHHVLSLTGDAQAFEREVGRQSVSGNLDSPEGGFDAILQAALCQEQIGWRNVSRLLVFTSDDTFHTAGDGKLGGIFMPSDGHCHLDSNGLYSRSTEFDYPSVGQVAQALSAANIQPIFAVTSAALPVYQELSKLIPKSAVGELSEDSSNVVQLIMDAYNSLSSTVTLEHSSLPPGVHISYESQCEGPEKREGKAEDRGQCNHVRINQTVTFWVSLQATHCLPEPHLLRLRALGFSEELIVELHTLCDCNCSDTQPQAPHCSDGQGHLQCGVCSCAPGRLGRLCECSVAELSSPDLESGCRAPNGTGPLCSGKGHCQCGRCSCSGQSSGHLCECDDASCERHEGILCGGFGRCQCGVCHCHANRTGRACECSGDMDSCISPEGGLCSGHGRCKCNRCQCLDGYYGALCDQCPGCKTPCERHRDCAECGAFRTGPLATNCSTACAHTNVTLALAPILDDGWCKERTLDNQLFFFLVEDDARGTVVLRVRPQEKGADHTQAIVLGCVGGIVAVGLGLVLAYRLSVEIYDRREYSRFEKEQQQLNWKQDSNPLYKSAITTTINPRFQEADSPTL
Experimental: The recombinant zz-MAdCAM was absorbed onto Maxisorp plate pre-coated for 2.5 hours at 37° C. with 100 μL of human IgG, and then washed twice with PBS. For capture the recombinant zz-MAdCAM was diluted to the appropriate concentration in 3% BSA/PBS, 100 μl added to each well, and incubated overnight at 4° C. Prior to use plates were washed twice in PBS.
For the α4β7 adhesion assay RPMI8866 cells were washed in cation free HBSS supplemented with 1 mM EDTA, pelleted and labelled by incubating with BCECF (Molecular Probes) in cation-free HBSS at 37° C. for 10 minutes. At this stage cells were also co-incubated with […] human IgG to block endogenous Fc receptors. Cells were then washed once more in cation-free HBSS and then used in the adhesion assay at a final concentration of 3×10^6 cells ml^−1 in the presence of the appropriate treatment as indicated. To prevent cells clumping the assay plate was finally centrifuged at 400 rpm for 3 minutes without the brake. Cells were then incubated for 20 minutes at 37° C. and then washed twice in PBS before reading directly in a plate reader. For antibody inhibition studies the cells were preincubated with the appropriate antibody at […] for 5 minutes at room temperature prior to being placed in the incubator.

[2] = molecular target: T2, α4β1 (Homo sapiens, UniProt P05556+P13612); test: J6 cell adhesion to GST-CS-1 (CS-1 fragment of fibronectin); conditions: for Inhibition of J6 cell adhesion to GST-CS-1 by synthetic peptide (α4β1-CS-1 interaction): varying peptide concentrations, 35 min 37° C.; for Relative potency compared to parent peptide SVVYGLR against α4β1 (J6 adhesion to GST-CS-1): SVVYGLR peptide with the residue mutated to alanine
T2 construct: Of the integrins analysed J6 express only α5β1 and α4βwhile HL60 express α4β1 and α5β1 and αLβ2; endogenous in cells; host or cells: J6 cells
T2 sequence (P05556 21-798, one chain of several): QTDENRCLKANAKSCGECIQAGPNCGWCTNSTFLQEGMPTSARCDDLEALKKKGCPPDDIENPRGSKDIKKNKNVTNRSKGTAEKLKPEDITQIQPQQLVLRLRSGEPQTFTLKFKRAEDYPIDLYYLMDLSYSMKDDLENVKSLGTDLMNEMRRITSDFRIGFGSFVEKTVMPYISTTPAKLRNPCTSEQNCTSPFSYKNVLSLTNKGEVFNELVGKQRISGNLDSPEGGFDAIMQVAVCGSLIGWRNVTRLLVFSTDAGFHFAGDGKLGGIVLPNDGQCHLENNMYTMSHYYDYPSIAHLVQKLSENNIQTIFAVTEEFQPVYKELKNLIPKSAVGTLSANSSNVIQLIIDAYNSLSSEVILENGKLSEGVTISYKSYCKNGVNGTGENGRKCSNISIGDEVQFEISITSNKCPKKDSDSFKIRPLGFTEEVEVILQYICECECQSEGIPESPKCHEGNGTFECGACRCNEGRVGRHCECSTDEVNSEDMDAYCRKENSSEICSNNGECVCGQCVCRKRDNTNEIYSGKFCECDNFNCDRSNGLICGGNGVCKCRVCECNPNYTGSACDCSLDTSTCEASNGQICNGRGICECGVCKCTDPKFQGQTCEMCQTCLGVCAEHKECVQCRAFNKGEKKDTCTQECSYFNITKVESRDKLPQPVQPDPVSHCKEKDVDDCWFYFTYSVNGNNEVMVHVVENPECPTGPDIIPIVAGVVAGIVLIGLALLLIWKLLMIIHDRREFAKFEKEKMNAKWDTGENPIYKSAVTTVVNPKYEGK
Experimental: (§1) All proteins were coated onto MAXISORP plates (Nunc) overnight at 4° C. Each protein was diluted in PBS at the concentrations indicated, and a total volume of 100 μl added per well. Plates were washed twice in PBS then blocked with 3% BSA/PBS for 1 hr at 37° C., and finally washed twice in PBS. Routinely HL60 cells were pelleted and washed once in HBSS (Sigma) then spread in 25 mM Hepes 7.5, HBSS at 2×10^6 ml^−1 (100 μl per well) in the presence of 0.2 mM MnCl2 and 50 ng/ml TPA, with other additions as indicated. J6 cells were likewise pelleted and washed once in HBSS (Sigma) then spread in 25 mM Hepes (pH7.5), HBSS at 2×10^6ml^−1 (100 μl per well) in the presence of 0.2 mM MnCl2 and other additions as indicated. For antibody inhibition cells were preincubated with the antibody (10 μg/ml) on ice for 10 minutes. Cells were then allowed to attach for 35 minutes at 37° C., washed twice in PBS, once in ethanol, and fixed in ethanol for 20 minutes at room temperature. For quantitation cells were visualised by staining with 0.1% crystal violet (Sigma) for 10 minutes then lysed in 0.5% TRITON X-100 (Sigma) and read at 570 nm in a Wallac Victor plate reader.

[3] = molecular target: T2, α4β1; test: J6 cell adhesion to GST fusion proteins of osteopontin (OPN); conditions: 0.2 mM MnCl2, 35 min 37° C.
Experimental: as §1

[4] = test system: α4β1; test: J6 cell adhesion to GST-CS-1 (CS-1 fragment of fibronectin); conditions: J6/CS-1 versus RPMI8866/zz-MAdCAM
Experimental: as §1

SVVYGLR (VARIANT 2 The carboxy terminal end can be, for example COO-, COOH, or CONH2, see specification, for example Figures 10, 11, and 13; listed as Homo sapiens) [synthetic peptide of OPN aa162-168]
Inhibition of RPMI8866 cell adhesion to zz-MAdCAM by synthetic peptide [1]: inhibited adhesion
Potency at blocking J6 adhesion to CS-1 compared with the CS-1 peptide itself [2]: only slightly less potent
Inhibition of J6 cell adhesion to GST-CS-1 by synthetic peptide (α4β1-CS-1 interaction) [2]: blocked adhesion to CS-1

Leu167: SVVYGLR synthetic peptide in which Leu167 is mutated to alanine (SVVYGAR; SVVYGLR peptide; UniProt P10451 162-168, looked up, variant L167A)
Relative potency compared to parent peptide SVVYGLR against α4β7 (RPMI8866 adhesion to zz-MAdCAM) [1]: relative potency similar to that observed with the blocked peptide
Relative potency compared to parent peptide SVVYGLR against α4β1 (J6 adhesion to GST-CS-1) [2]: relative potency similar to that observed with the blocked peptide

Val163: SVVYGLR synthetic peptide in which Val163 is mutated to alanine (SAVYGLR; SVVYGLR peptide; UniProt P10451 162-168, looked up, variant V163A)
Relative potency compared to parent peptide SVVYGLR against α4β7 (RPMI8866 adhesion to zz-MAdCAM) [1]: reduced the potency
Relative potency compared to parent peptide SVVYGLR against α4β1 (J6 adhesion to GST-CS-1) [2]: reduced the potency

aa17-168RAD: GST fusion of thrombin cleaved OPN fragment with RGD motif mutated to RAD
Ability of coated GST-OPN fusion protein to support J6 cell adhesion [3]: did not affect binding

aa153-168: GST fusion protein of OPN aa153-168, Gly of RGD mutated to Ala (VDTYDGRADSVVYGLR; also: GST fusion protein)
Ability of coated GST-OPN fusion protein to support J6 cell adhesion [3]: supported J6 cell adhesion

aa125-168: GST fusion, N-terminal deletion of the thrombin cleaved OPN fragment
Ability of coated GST-OPN fusion protein to support J6 cell adhesion [3]: bound

SVVYGLR-CONH2 (SVVYGLR-NH2; listed as Homo sapiens) [SVVYGLR (SEQ ID NO: 4)-CONH2, capped peptide lacking the acidic carboxy terminus]
Inhibition of RPMI8866 cell adhesion to zz-MAdCAM by synthetic peptide [1]: abrogated the ability
Inhibition of J6 cell adhesion to GST-CS-1 by synthetic peptide (α4β1-CS-1 interaction) [2]: abrogated the ability

Gly166: SVVYGLR synthetic peptide in which Gly166 is mutated to alanine (SVVYALR; SVVYGLR peptide; UniProt P10451 162-168, looked up, variant G166A)
Selectivity between α4β1 and α4β7 on mutating the residue [4]: introduces a degree of selectivity

Val164: SVVYGLR synthetic peptide in which Val164 is mutated to alanine (SVAYGLR; SVVYGLR peptide; UniProt P10451 162-168, looked up, variant V164A)
Relative potency compared to parent peptide SVVYGLR against α4β7 (RPMI8866 adhesion to zz-MAdCAM) [1]: minor contribution to binding
Relative potency compared to parent peptide SVVYGLR against α4β1 (J6 adhesion to GST-CS-1) [2]: minor contribution to binding

FPTDLPA (listed as Homo sapiens) [synthetic peptide of OPN aa136-142]
Inhibition of J6 cell binding to CS-1 over the scrambled control at lower matrix concentrations ([2]; lower matrix concentrations, data not shown): weak inhibition
Inhibition of J6 cell adhesion to GST-CS-1 by synthetic peptide (α4β1-CS-1 interaction) [2]: unable to inhibit binding to CS-1

aa115-168: GST fusion, N-terminal deletion of the thrombin cleaved OPN fragment
Ability of coated GST-OPN fusion protein to support J6 cell adhesion [3]: bound

aa132-146: GST fusion protein of OPN aa132-146 (LVTDFPTDLPATEVF; also: GST fusion protein; UniProt P10451 132-146, looked up, fragment)
Ability of coated GST-OPN fusion protein to support J6 cell adhesion [3]: supported J6 cell adhesion

aa17-314: GST fusion protein representing full length human OPN
Ability of coated GST-OPN fusion protein to support J6 cell adhesion [3]: adhered

Tyr165: SVVYGLR synthetic peptide in which Tyr165 is mutated to alanine (SVVAGLR; SVVYGLR peptide; UniProt P10451 162-168, looked up, variant Y165A)
Relative potency compared to parent peptide SVVYGLR against α4β7 (RPMI8866 adhesion to zz-MAdCAM) [1]: reduced the potency
Relative potency compared to parent peptide SVVYGLR against α4β1 (J6 adhesion to GST-CS-1) [2]: reduced the potency

GRVLYSV (Synthesized and/or Homo sapiens) [scrambled control peptide of SVVYGLR, reference compound]
Inhibition of RPMI8866 cell adhesion to zz-MAdCAM by synthetic peptide [1]: no effect

aa17-168: GST fusion protein representing the thrombin cleaved fragment of OPN
Ability of coated GST-OPN fusion protein to support J6 cell adhesion [3]: adhered
